Source: publication PMC2187783

Columns and labels:
[1] = molecular target: PR97 chimeric class II beta chain (beta1 domain of DP, beta2 domain of DR) (human)
[2] = molecular target: RP97 chimeric class II beta chain (beta1 domain of DR, beta2 domain of DP) (human)

Row | Substance | Table II, DPa Percent: percentage of cells binding the mAb SG465 [1] [%] | Table II, DPa Percent: percentage of cells binding the mAb SG465 [2] [%] | Table II, DRa Percent: percentage of cells binding the mAb SG465 [1] [%] | Table II, DRa Percent: percentage of cells binding the mAb SG465 [2] [%]
1 | HLA-DP alpha chain (from UniProt P20036 29-260) (natural protein) | 22 | 0 | – | –
2 | HLA-DR alpha chain (from UniProt P01903 26-254) (natural protein) | – | – | 0 | 54
